Experimental data as given in article PMC12823590.

Target: recombinant OsLIKE1-KD from E. coli (GST-OsLIKE1-KD and OsLIKE1-KD-His) (rice)
Test: native gel or EMSA

recombinant OsLIKE1-KD from E. coli (GST-OsLIKE1-KD and OsLIKE1-KD-His) (domain or fragment)
stoichiometry N: 2
